The results in this text go back to the DeepSol protein solubility set.

A short description of this series: soluble on expression in E. coli; label from the status in PepcDB or PDB records.
On to “MKATSEELAIFVAVVESGSFSRAAEQLGQANSAVSRAVKKLEMKLGVSLLNRTTRQLSLTEEGERYFRRVQQILQEMAAAETEIMESRNTPRGLLRIDAATPVMLHFLMPLIKPFRERYPEITLSLVSSETFINLIERKVDVAIRAGTLTDSSLRARPLFTSYRKIIASPDYIARFGKPETVEELKRHLCLGFSEPVSLNTWPIACSDGQLHEIKCGISSNSGETLKQLCLNGNGIACLSDYMIDKEIARGELVELLADKRLPVEMPFSAVYYSDRAVSTRIRAFIDFLSEYIRTAPAGAVKEG”, for which the “soluble on expression in E. coli” value is on record as “not soluble”.

As to “MASAAKGKILAVIGDEDTVVGFLLGGVGELNKARKPNYLIVDKQTTVQEIEEAFNGFCARDDIAIILINQHIAEMIRYAVDNHTQSIPAVLEIPSKEAPYDPSKDSILNRARGLFNPEDFR”, the “soluble on expression in E. coli” value was “soluble”.

For “MSLRSDLINALYDENQKYDVCGIISAEGKIYPLGSDTKVLSTIFELFSRPIINKIAEKHGYIVEEPKQQNHYPDFTLYKPSEPNKKIAIDIKTTYTNKENEKIKFTLGGYTSFIRNNTKNIVYPFDQYIAHWIIGYVYTRVATRKSSLKTYNINELNEIPKPYKGVKVFLQDKWVIAGDLAGSGNTTNIGSIHAHYKDFVEGKGIFDSEDEFLDYWRNYERTSQLRNDKYNNISEYRNWIYRGRK”, the “soluble on expression in E. coli” value is “soluble”.

Turning to “MSGLHILAFGAHADDVEIGMAGTIAKYTKQGYEVGICDLTEADLSSNGTIELRKEEAKVAARIMGVKTRLNLAMPDRGLYMKEEYIREIVKVIRTYKPKLVFAPYYEDRHPDHANCAKLVEEAIFSAGIRKYMPELSPHRVESFYNYMINGFHKPNFCIDISEYLSIKVEALEAYESQFSTGSDGVKTPLTEGYVETVIAREKMFGKEVGVLYAEGFMSKKPVLLHADLLGGCK”, the “soluble on expression in E. coli” value is listed as “not soluble”.

In the case of “MQKQNIVILGSTGSIGKSTLSVIENNPQKYHAFALVGGKNVEAMFEQCIKFRPHFAALDDVNAAKILREKLIAHHIPTEVLAGRRAICELAAHPDADQIMASIVGAAGLLPTLSAVKAGKRVLLANKESLVTCGQLFIDAVKNYGSKLLPVDSEHNAIFQSLPPEAQEKIGFCPLSELGVSKIILTGSGGPFRYTPLEQFTNITPEQAVAHPNWSMGKKISVDSATMMNKGLEYIEARWLFNASAEEMEVIIHPQSIIHSMVRYVDGSVITQMGNPDMRTPIAETMAYPHRTFAGVEPLDFFKIKELTFIEPDFNRYPNLKLAIDAFAAGQYATTAMNAANEIAVQAFLDRQIGFMDIAKINSKTIERISPYTIQNIDDVLEIDAQAREIAKTLLRE”, the “soluble on expression in E. coli” value is reported as “not soluble”.

As for “MSLDLKITNGFYDPSHLSYEVVERKGLGHPDTLADGIAEQIEIDYSLYCLDKFGVIPHHNFDKIIIRGGHSVQDFGGSDFIEPIKIIFLGRASKKCFNSSIPLFKIQKKAATKYLNRILPNLDVENYVEFETLTSDFTTKTNWFSPEAIEDLPEYLDVPKANDTATMISYWPLTISEELALMIEGYFYKLDKNELPTPRFTKMGGDIKVMVVRNDLEYSIRINFPLISKFFNNDIESQLYVDKHVEKIKKYIEQKYKNISFSIDYHYYLTTTGSCIDFGEEGAVGRGNKTHGIISSFRPNTMEAPAGKNCTYFVGKVWGFLSDTIAKEIYEAFNTPCQIIMQLNIGSKLYRPTHLFIQTEESVDQERVLEIVNRHLNNGKQNTNLILSTQHFIPKTNVYDGEGHHHHHH”, the “soluble on expression in E. coli” value is “soluble”.

Turning to “MSTIAAGRFAKDDVDQDTKWWKEYPSKHYIERARPQNYYDEFVQNAWSKSKRLARAASFTNLTYIKDKDMDFPIRKSDSVSTLAPSLALPQYCREAQRIVHTVPVYKPTVHDWYNKSYSDARWRDTHREINKPYKPLDTYISPASSHVPYYSFQTKRIFFDEKARQLAPYLKESQRYMDRYVSSRLKADDYANRFAYTAYEWRKPQDHSFNREFMTTQGVFVATPTGIPHQHYDKFGMRRLYKRTGRFFF”, the “soluble on expression in E. coli” value is reported as “not soluble”.

In the case of “GADGVGNASGDWHCDSTWSEGHVTTTSTRTWVLPTYNNHLYKRLGESLQSNTYNGFSTPWGYFDFNRFHCHFSPRDWQRLINNNWGMRPKAMRVKIFNIQVKEVTTSNGETTVANNLTSTVQIFADSSYELPYVMDAGQEGSLPPFPNDVFMVPQYGYCGLVTGNTSQQQTDRNAFYCLEYFPSQMLRTGNNFEITYSFEKVPFHSMYAHSQSLDRLMNPLIDQYLWGLQSTTTGTTLNAGTATTNFTKLRPTNFSNFKKNWLPGPSIKQQGFSKTANQNYKIPATGSDSLIKYETHSTLDGRWSALTPGPPMATAGPADSKFSNSQLIFAGPKQNGNTATVPGTLIFTSEEELAATNATDTDMWGNLPGGDQSNSNLPTVDRLTALGAVPGMVWQNRDIYYQGPIWAKIPHTDGHFHPSPLIGGFGLKHPPPQIFIKNTPVPANPATTFSSTPVNSFITQYSTGQVSVQIDWEIQKERSKRWNPEVQFTSNYGQQNSLLWAPDAAGKYTEPRAIGTRYLTHHL”, the “soluble on expression in E. coli” value is given as “soluble”.

“MGSDKIHHHHHHMSIPIIDLSQFQISNQVRRQNVVKNIYQACHEIGFMYIQNSGISPDLLEQVFSASKSFFDSPLAVKEQLAWNNEFINTGYVGLEREHLNPNQPGDLKEAFNIKNDIIINNFSSPILLTNNPVISTFYNACTELANTVLQAFALALELPEYFFTTRHNQKNHTLRLLHYPPLQTSPKPGQVRAGEHSDYGSLTLLFQHAVGGLEVQTTRKEWIAAPLIPGMVLVNTGDLMQRWTNHIFCSTKHRVMIPNDERVKKSRYSIAFFCHPNDDTEIACLESCSQRQSPIYPPILAGEYLLSSLQLTY”: the “soluble on expression in E. coli” value was “not soluble”.

Regarding “MFIESRELVMKHRIPVAKTERYWKGLEEGKVFKTVCKSCGKEHHPPRAECLCGGEVEWVEITGEGVVEAFTTVHTIPAGFEWHREPYTIAIARFGEVRVMGWAKEVRVGDVVRLKPGKDETGVWKVYFEVV”, the “soluble on expression in E. coli” value is recorded as “not soluble”.

Take “GPGSMPYIRMAYEKAISDVPADTLDKVKAVLSALEEVLSVRTFLVGERLTIADVAVAFSIHWVYRCNRKHGQTLYKEYRAVYRHYNTVMRHPKIHAMMRKEGAAIGPLRS”: the “soluble on expression in E. coli” value is on record as “not soluble”.

For the sequence “NTGFDINGMVSKIVSAERVPKQQRIDNERTNIDTSISAYGRLRESLDTMKNLMTQFRQEKAFAVRKVDTSNEQVVSATATTEAIAGNYSVDVLQLAQ”, the “soluble on expression in E. coli” value was “not soluble”.

As to “MITEKRHELILTELSKQDFLTLQELIERTGCSASTIRRDLSKLQKFGKLKRVHGGATLNQSSALEPNLADKRSTNLREKQEIGRLAASQIENRDCVFLDAGSTTLEMIPYIKASDIIVVTNGLTHVEELLKHGIRTLIIGGEVKSTTFATVGASALETLRRYRFDKVFLGMNGIDLKYGLTTPDEQEAIIKHHAMQLGTQVYVLIDHDKYEKVYFAHVPLEEGVSIITSKKAQSLKQFHLFAGQYNFIGGTLLEHHHHHH”, the “soluble on expression in E. coli” value is “soluble”.

On to “MAAHGGSAASSALKGLIQQFTTITGASESVGKHMLEACNNNLEMAVTMFLDGGGIAEEPSTSSASVSTVRPHTEEEVRAPIPQKQEILVEPEPLFGAPKRRRPARSIFDGFRDFQTETIRQEQELRNGGAIDKKLTTLADLFRPPIDLMHKGSFETAKECGQMQNKWLMINIQNVQDFACQCLNRDVWSNEAVKNIIREHFIFWQVYHDSEEGQRYIQFYKLGDFPYVSILDPRTGQKLVEWHQLDVSSFLDQVTGFLGEHGQLDGLSSSPPKKCARSESLIDASEDSQLEAAIRASLQETHFDSTQTK”, for which the “soluble on expression in E. coli” value is recorded as “not soluble”.

For “MQRCDWVSQDPLYIAYHDNEWGVPETDSRKLFEMICLEGQQAGLSWITVLKKRENYRACFHQFDPIRIAAMQEEDVERLLQNTGIIRHRGKIQAIISNARAWLAMEQNGESFADFVWSFVDGQPQITQAASLDKIPTSTPASDALAKALKKRGFKFVGTTICYSFMQACGLVNDHITGCFCHPG”, the “soluble on expression in E. coli” value is on record as “soluble”.

For the sequence “MSLSEASFLYLNDIHADPLYSPIIPSKHDCRGDHKKTIDPHKYGQYECDSPMELFESLVSNAKQTNEKPAFILLGGDLIAHGLNTDSKMLKQSFKNVTAPLEAAFPNTSIYITLGNNDFASDYGSFDTDADNFKTAYKVFGKWMNDEQSKTFLKGGYYYADFPEVNLRFLFLNSVMYAAKRDQTQHAEDPYDQFAWIESSYDDAVQKGFKVSVALHIPPGVYYYKNKLGWNEDYITKFSKIMKKCDFSFILSGHSHTDMFLPLYSPTADKDSVLYSLSAPSVSPVNYNNPGYRVFELSNGIVKDYTQYYADLLMNPSVLKWQVEYKFSDAYSASNVTRETINNAAEWVRTTGEGQWRYRERIYTRADEHNAFYYCALKALLPDDIVDCENKLNIDKLSAQPYYKEGHHHHHH”, the “soluble on expression in E. coli” value was “soluble”.

As to “MGSDKIHHHHHHMKQMKIPATYMRGGTSKGVFFALKDLPLNAQQPGPARDALLLRVIGSPDPYGKQTDGMGGATSSTSKTVILDKSQRDDHDVDYLFGQVAIDKPFVDWSGNCGNLTAAVGAFAITQGLVDSAKIPDNGIAVVKIWQANINKTIIAHVPMVDGEVQELGDFELDGVTFPAAEVLVEFVDPADGEGDMFPTGNLVDKLEVPGEPVFDATFINAGIPTIFLKAEQLGYEGTELQEAINGDAAALERFETIRAHGALQMGLIQSLDEAAGRQHTPKIAFVAPAKAYTSSSGKQIAAEEIDLHVRALSMGKLHHAMMGTAAVAIGTAASIPGTLVNQAAGGQARESVRFGHPSGTLKVGAKASEQEGRWQVEKVSMSRSARVLMQGWVCVPESLG”, the “soluble on expression in E. coli” value is “not soluble”.

On to “MPIKVKYYGNVVFASDAVCGQAENYATLKAMKEVGNYTISIQTFENAENVYPEEFLAKPVADEHYLTTEDGSVGIKGHYLDIVKELIEKDKVDIIFAGGKLGSLAKLAELTRPYGIPTLEHHHHHH”, for which the “soluble on expression in E. coli” value is “not soluble”.

In the case of “MGSDKIHHHHHHMFTGTFTLRSRKSRHDHSSGNVRVCENEDMFESVGTWWRNLTHRHGDDRNNDDTLDDATNTLLSILPLASIVVDEHDEVIRAHPDAYALGVVRDDAIADDTVASAVHEVRAHGGKKQFSLTTTTLHEPKKAPKAGKPTMREVAKQALIGQSPDKPVTTVSRPNWLKVIVGRLNERFVVVLVSDVSETVRFSQIRDSFITNVSEQLLKPTQSLEELADALEHDSDNKAAIEGNTVKLRQSCARMEHMVSDLLLLIKAQEPILPTASNRINVMEQVKTVVDAHRDMAQRRGIDIEIDGDESLDINGEGEQIQAAVAKLLENAIAYSPDGKGITVSVKPNEDGTKVLLSVLDRGCGIAQKEQSRIFERFYRGGNQNGHSEEGIGLGLAIVKHVALTHHGSASVWSAPGQGSTFTLGLPVARN”, the “soluble on expression in E. coli” value was “not soluble”.

As to “NNPVSETITRKHVDKDQIRAFGVVAEDNAQLEKGSLVMMGGKYWFVVNPEDSAKLTGILKAGLDKPFQIVEDTPSYARHQALPVKLESPGSQNFSTEGLCLRYDTDKPADIAKLKQLGFEAVKLDNRTIYTRCVSAKGKYYATPQKLNADYHFEQSVPADIYYTVTEEHTDKSKLFANILYTPP”, the “soluble on expression in E. coli” value was “not soluble”.

Take “DDEEDEGSTIARHFHELWDMANKQDVLELILEQDIQVEEPAIFSKAIINFKADLAKKTLGPRGREVLNRLMPKVFDAVFAHPDAQFGLPRVLHLLHNICTRTTYLELLDEHPAALVQLVRLCTASPMISEQLSRYPILLDELIDPQQLYNPIPLDSYRTELRDFLARIPEDDMEQQMEALRQFKQICILRIAAADIAGVLPVMKVSDHLTYLAEAIVEAVVSQAWLQVSEKYGEPTHVKDREGKGFAVIGYGKVGGWELGYNSDLDIVFMHDCPVNVYTDGKKEIDGRQFYLRLAQRIIHIFSTRTASGILYEVDTRLRPSGASGLLVSPTDAFDDYQHQDAWTWEHQALVRARMIYGDEPLAIAFHNTRHDVLCKPRDEQTLKKEVVEMREKMRDHLGGKKSGRFMIKQDVGGITDIEFLAQYLVLNYSHEKPKLTRWCDNVRIYETLIAQGVMEEDQAMQLIRAYTAMRNEIHHRNLLNLDADVVEDKFVAEREWVKQAWNQWFA”: the “soluble on expression in E. coli” value was “soluble”.
